We go through one molecule from article doi:10.1101/2025.02.04.636395, “Identification of a RAB32-LRMDA-Commander membrane trafficking complex reveals the molecular mechanism of human oculocutaneous albinism type 7” (bioRxiv, 2025).

This experiment deals with T1, recombinant LRMDA (human, UniProt A0A087WWI0 1-226).
T1 construct: synthetic gene codon-optimised for S. frugiperda; also called tag-less LRMDA; purified LRMDA; source: Sf21 insect cells (baculovirus), purified (HaloLink resin, TEV cleavage); not shown: HaloTag, N-terminal, cleaved
T1 sequence (looked up): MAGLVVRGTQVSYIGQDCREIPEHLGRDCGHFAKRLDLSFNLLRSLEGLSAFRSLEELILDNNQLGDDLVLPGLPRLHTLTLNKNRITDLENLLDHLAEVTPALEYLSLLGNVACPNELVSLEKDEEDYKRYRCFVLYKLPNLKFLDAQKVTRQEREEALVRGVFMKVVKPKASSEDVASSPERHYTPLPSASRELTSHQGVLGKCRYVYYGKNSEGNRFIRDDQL
Nature of the experiment: pull-down; Retriever (0.5 µM, His-tagged VPS29) held on TALON resin; 1 µM LRMDA and/or 1 µM RAB32 added; 50 mM HEPES pH 7.2, 150 mM NaCl, 2 mM β-mercaptoethanol, 0.1% Triton X-100; 45 min at 4 °C; washes with 10 mM imidazole; LRMDA binding slightly increased in the presence of RAB32. The settings on record: both partners purified.

B1: recombinant RAB32 (natural protein, human, UniProt Q13637 1-225, looked up)
chain: MAGGGAGDPGLGAAAAPAPETREHLFKVLVIGELGVGKTSIIKRYVHQLFSQHYRATIGVDFALKVLNWDSRTLVRLQLWDIAGQERFGNMTRVYYKEAVGAFVVFDISRSSTFEAVLKWKSDLDSKVHLPNGSPIPAVLLANKCDQNKDSSQSPSQVDQFCKEHGFAGWFETSAKDNINIEEAARFLVEKILVNHQSFPNEENDVDKIKLDQETLRAENKSQCC
notes: RAB32, human; synthetic gene codon-optimised for S. frugiperda; also called tag-less RAB32; purified RAB32; source: Sf21 insect cells (baculovirus), purified (Glutathione Sepharose, TEV cleavage); not shown: GST, N-terminal, cleaved
B1: the binding result is recorded as “binds”.
